Data published in patent US20250277048A1 (Regeneron, published 2025).

How the values were obtained:
[1] = molecular target: T1, human CD40 (hCD40) expressed on cells (human, UniProt P25942 21-277); assay: cell-based or functional assay
[2] = molecular target: T1, human CD40 (hCD40) expressed on cells; assay: cell-based or functional assay; remark: listed apart in the source
[3] = molecular target: T1, human CD40 (hCD40) expressed on cells; assay: cell-based or functional assay; remark: listed apart in the source
[4] = molecular target: T1, human CD40 (hCD40) expressed on cells; assay: flow cytometry, Ramos 2G6.4C10 cells
Protocol: (§1) Cells were washed with 2% FBS (w/v) in 1×PBS (flow cytometry staining buffer) by centrifugation with benchtop Centrifuge 5810R (Eppendorf®, Hamburg, Germany). Cells were incubated for 30 minutes at 4° C. with serial dilutions of following antibodies ranging from 1.7 pM to 100 nM in flow cytometry staining buffer (1) anti-CD40×CD40 bispecific antibodies, or (2) parental anti-CD40 antibodies (bivalent antibodies comprising 2 fragment antigen-binding [Fab] arms identical to one of the two anti-CD40 Fab of bispecific anti-CD40×CD40 antibodies), or (3) anti-CD40×Irrelevant antibodies (bivalent antibodies that incorporate one Fab arm identical to one of anti-CD40 Fab of anti-CD40×CD40 antibodies and another Fab arm specific to an irrelevant antigen, i.e. birch pollen main allergen Bet v1), or (4) human IgG4 isotype control antibodies with Fc mutation. After washing, cell bound antibodies were detected with 2.5 μg/ml Allophycocyanin (APC)-conjugated goat anti-human IgG antibody specific for the Fcγ fragment (Jackson Immunoresearch, West Grove, PA) for 30 minutes at 4° C. Cells were washed and subsequently fixed with 50% solution of Cytofix™ Fixation Buffer (BD, Franklin Lakes, NJ) in flow cytometry staining buffer for 20 minutes at room temperature. Cells were washed and resuspended in flow cytometry staining buffer and stored at 4° C. for downstream flow cytometry analysis.
(§2) Acquisition of fluorescence signals were recorded on the ZE5 Cell Analyzer (Bio-Rad, Hercules, CA) according to the manufacturer's recommended procedure and flow cytometry data analysis was performed using the open-source R packages flowCore, flowStats, flowDensity, ggCyto, and flowAI. Multiplexed samples were deconvoluted and individual cell populations were identified based on their unique CellTrace™ fluorescence signature. APC Median Fluorescence intensity (MFI) was recorded to indicate the binding intensity of each antibody over a range of concentrations. Antibodies with MFI greater than 1500 at the highest tested concentration (100 nM) were classified as specific binders. In addition, direct binding signals (APC MFI) were analyzed as a function of the antibody concentration and data were fitted with a sigmoidal (four-parameter logistic) dose-response model using GraphPad Prism™ software.

[5] = molecular target: T1, human CD40 (hCD40) expressed on cells; assay: flow cytometry, HEK293/D9/hCD40 cells
Protocol: as §1, §2

[6] = molecular target: T2, Macaca fascicularis CD40 (mfCD40) expressed on HEK293/D9/mfCD40 cells (Macaca fascicularis, UniProt G7PG38 21-278); assay: flow cytometry, HEK293/D9/mfCD40 cells
T2 construct: whole, on cells; also called monkey CD40
Protocol: as §1, §2

[7] = molecular target: T3, human CD40 extracellular domain expressed with a C-terminal myc-myc-hexahistidine tag (human); assay: ELISA blocking of 40 nM hCD40-mmH binding to 9His-hCD40L
T3 construct: also called hCD40-MMH; hCD40-mmH
T3 sequence (chain, as listed by the source limits assumed): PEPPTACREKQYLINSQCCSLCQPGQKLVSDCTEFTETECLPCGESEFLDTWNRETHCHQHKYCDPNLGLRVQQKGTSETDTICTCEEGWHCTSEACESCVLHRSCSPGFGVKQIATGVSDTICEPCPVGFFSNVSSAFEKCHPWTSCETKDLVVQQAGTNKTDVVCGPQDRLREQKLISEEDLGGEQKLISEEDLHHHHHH
Text: An ELISA-based blocking assay was developed to determine the ability of C40×CD40 bispecific antibodies to block the binding of the hCD40 monomer to plate-coated hCD40L. The recombinant human CD40-mmH protein (hCD40-MMH; REGN3094; SEQ ID NO: 53) used in the experiments comprises a portion of the human CD40 extracellular domain (amino acids P20-R193) fused to 2×Myc peptide and 6×histadine (SEQ ID NO: 1110) at the C-terminus of human CD40, and the human CD40L (accession #NM_000074.2) with amino acids E108-L261 of the extracellular domain with 9×His-2×(SGGG)-IGER at the N-terminus (9His-hCD40L) was commercially obtained from Biolegend.
In the blocking assay, 9His-hCD40L was passively absorbed at a concentration of 5 μg/mL in PBS on a 96-well microtiter plate overnight at 4° C. […] In a separate 96-well microtiter plate, a fixed amount of 40 nM hCD40-mmH was pre-mixed with one of the following antibodies, at concentrations ranging from 977 pM to 1 μM in PBS+0.5% BSA: (1) CD40×CD40 bispecific antibodies (REGN16431, REGN16432, REGN16634, and REGN16335); (2) parental CD40 mAbs (bivalent antibodies comprising 2 fragment antigen-binding [Fab] arms identical to one of anti-CD40 Fab of CD40×CD40 antibodies); (3) CD40×Irrelevant antibodies (bivalent antibodies that incorporate one Fab arm identical to one of anti-CD40 Fab of CD40×CD40 antibodies and another Fab arm specific to an irrelevant antigen); and (4) human IgG4 with Fc mutation isotype control antibodies (REGN7540 and REGN4513). The fixed concentration of hCD40-mmH was selected to be near the concentration (EC₅₀ value) that generated 50% of the maximal binding to the plate-adhered 9His-hCD40L. After one-hour incubation, the antibody-antigen complexes were transferred to the microtiter plate coated with 9His-hCD40L. After one hour incubation at room temperature, the plates were washed, and plate-bound hCD40-mmH protein was detected with horseradish peroxidase (HRP) conjugated goat anti-c-Myc antibody. The plates were then developed using TMB substrate solution (BD Biosciences) according to the manufacturer's recommended procedure and the absorbance at 450 nm (OD₄₅₀) was measured on a SpectraMax i3×plate reader.

[8] = molecular target: T1, human CD40 (hCD40) expressed on cells; assay: cell-based or functional assay; remark: listed apart in the source
[9] = molecular target: T1, human CD40 (hCD40) expressed on cells; assay: cell-based or functional assay; remark: listed apart in the source
[10] = molecular target: T1, human CD40 (hCD40) expressed on cells; assay: cell-based or functional assay; remark: listed apart in the source
[11] = molecular target: T1, human CD40 (hCD40) expressed on cells; assay: cell-based or functional assay; remark: listed apart in the source
[12] = molecular target: T1, human CD40 (hCD40) expressed on cells; assay: cell-based or functional assay; remark: listed apart in the source
[13] = molecular target: T1, human CD40 (hCD40) expressed on cells; assay: cell-based or functional assay; remark: listed apart in the source

T1 sequence (P25942 21-277): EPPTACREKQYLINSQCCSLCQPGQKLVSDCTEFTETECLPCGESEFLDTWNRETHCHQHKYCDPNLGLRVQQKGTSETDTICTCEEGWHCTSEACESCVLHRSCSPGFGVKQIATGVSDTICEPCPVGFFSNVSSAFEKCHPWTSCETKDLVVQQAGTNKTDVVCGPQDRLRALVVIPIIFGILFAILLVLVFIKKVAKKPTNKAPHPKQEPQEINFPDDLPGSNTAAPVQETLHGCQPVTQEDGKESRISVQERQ

Row | Binder | Max % activation, no ligand, Ramos NFkB-luc [1] | Max % inhibition, 500 pM hCD40L, Ramos NFkB-luc [1] | IC50, 900 pM hCD40L, Raji NFkB-luc [2] | Max % activation, no ligand, Raji NFkB-luc [2] | Max % inhibition, 900 pM hCD40L, Raji NFkB-luc [2] | Max % activation, no ligand, THP-1 NFkB-luc [3] | Max % inhibition, 10 nM hCD40L, THP-1 NFkB-luc [3] | EC50 [4] | MFI at 100 nM [4] | EC50 [5] | MFI at 100 nM [5] | EC50 [6] | MFI at 100 nM [6] | % Blocking at 1 uM mAb [7] | IC50, 500 pM hCD40L, Ramos NFkB-luc [1] | IC50, 10 nM hCD40L, THP-1 NFkB-luc [3] | IC50 [7] | % max blockade relative to no mAb, IL-6, assay #2 donor 1 [8] | % max blockade relative to no mAb, IL-6, assay #2 donor 2 [8] | % max blockade relative to no mAb, IL-10, assay #2 donor 1 [9] | further results
1 | REGN17289 (antibody, V domains shown, bivalent mAb with two Fab arms identical to the 30027 arm; also called Parental CD40 (30027)) VH: EVQLVESGGGLVQPGGSLRLSCAASGFTFSSYAMNWVRQAPGKGLEWVSIISGTIGKTYYADSVKGRFTISRDNSKNTLYLQMNSLRGEDTAVYYCAKDTERDITGSPFDYWGQGTLVTVSS VL: not shown | 4% | -133% | 2.72e-11 M | 10% | 55% | 1% | -92% | 0.47 nM | 2660 MFI | 0.76 nM | 20500 MFI | 1.1 nM | 32900 MFI | 10% |  |  |  |  |  |  | EC50 (potentiation), 500 pM hCD40L, Ramos NFkB-luc [1]: 7.51e-12 M; EC50 (potentiation), 10 nM hCD40L, THP-1 NFkB-luc [3]: 0.016 nM
2 | REGN17288 (antibody, V domains shown, also called Parental CD40 (21519)) VH: QLQLQESGPGLVRPSETLSLTCSVSGASMNTNNYYWGWIRQPPGKGLEWIGSGYYNGNTYYNPSLKSRVTISVDTSKNQFSLKLNSVTAADTAVYYCARQTPPRIIGSPNIWGQGTMVTVSS VL: not shown | 6% | 88% | 4.28e-11 M | 14% | 90% | 0% | 98% | 1.3 nM | 2420 MFI | 1.2 nM | 20300 MFI | 9.2 nM | 11800 MFI | 94% | 4.07e-11 M | 0.334 nM | 52 nM |  |  |  | 
3 | REGN11209 (comparator anti-CD40 antibody) (antibody, human IgG1, kappa, N297A, V domains shown) VH: QVQLVESGGGVVQPGRSLRLSCAASGFTFSSYGMHWVRQAPGKGLEWVAVISYEESNRYHADSVKGRFTISRDNSKITLYLQMNSLRTEDTAVYYCARDGGIAAPGPDYWGQGTLVTVSS VL: DIVMTQSPLSLTVTPGEPASISCRSSQSLLYSNGYNYLDWYLQKPGQSPQVLISLGSNRASGVPDRFSGSGSGTDFTLKISRVEAEDVGVYYCMQARQTPFTFGPGTKVDIRR |  |  |  |  |  |  |  |  |  |  |  |  |  |  |  |  |  | 88.6% | 88.3% | 88.1% | % max blockade relative to no mAb, IL-6, donor 1 [11]: 84.2%; % max blockade relative to no mAb, IL-6, donor 2 [11]: 91.3%; % max blockade relative to no mAb, IL-6, donor 3 [11]: 91.3%; % max blockade relative to no mAb, IL-10, donor 1 [12]: 84.1%; % max blockade relative to no mAb, IL-10, donor 2 [12]: 91.7%; % max blockade relative to no mAb, IL-10, donor 3 [12]: 91.4%; % max blockade relative to no mAb, TNFa, donor 1 [13]: 53.9%; % max blockade relative to no mAb, TNFa, donor 2 [13]: 71.4%; % max blockade relative to no mAb, TNFa, donor 3 [13]: 73.9%; % max blockade relative to no mAb, IL-10, assay #2 donor 2 [9]: 90.5%; % max blockade relative to no mAb, TNFa, assay #2 donor 1 [10]: 62%; % max blockade relative to no mAb, TNFa, assay #2 donor 2 [10]: 50.6%

The next lines start with results.

Row | Max % activation, no ligand, Ramos NFkB-luc [1] | Max % inhibition, 500 pM hCD40L, Ramos NFkB-luc [1] | IC50, 900 pM hCD40L, Raji NFkB-luc [2] | Max % activation, no ligand, Raji NFkB-luc [2] | Max % inhibition, 900 pM hCD40L, Raji NFkB-luc [2] | Max % activation, no ligand, THP-1 NFkB-luc [3] | Max % inhibition, 10 nM hCD40L, THP-1 NFkB-luc [3] | EC50 [4] | MFI at 100 nM [4] | EC50 [5] | MFI at 100 nM [5] | EC50 [6] | MFI at 100 nM [6] | % Blocking at 1 uM mAb [7] | IC50, 500 pM hCD40L, Ramos NFkB-luc [1] | IC50, 10 nM hCD40L, THP-1 NFkB-luc [3] | IC50 [7] | % max blockade relative to no mAb, IL-6, assay #2 donor 1 [8] | % max blockade relative to no mAb, IL-6, assay #2 donor 2 [8] | % max blockade relative to no mAb, IL-10, assay #2 donor 1 [9] | Binder | further results
4 |  |  |  |  |  |  |  |  |  |  |  |  |  |  |  |  |  | 89% | 88.1% | 87.1% | REGN20484 (bispecific antibody, human IgG4 S228P, kappa) heavy 1: EVQLVESGGGLVQPGGSLRLSCAASGFTFGSYGMAWVRQAPGKGLEWVSAISGSGDYTNYADSVKRRFTISRDNSKNTLYLQMSSLRAEDTAVYYCAKEKTGTTGYLYSGMDVWGQGTTVTVSSASTKGPSVFPLAPCSRSTSESTAALGCLVKDYFPEPVTVSWNSGALTSGVHTFPAVLQSSGLYSLSSVVTVPSSSLGTKTYTCNVDHKPSNTKVDKRVESKYGPPCPPCPAPGGGGPSVFLFPPKPKDTLMISRTPEVTCVVVDVSQEDPEVQFNWYVDGVEVHNAKTKPREEQFNSTYRVVSVLTVLHQDWLNGKEYKCKVSNKGLPSSIEKTISKAKGQPREPQVYTLPPSQEEMTKNQVSLTCLVKGFYPSDIAVEWESNGQPENNYKTTPPVLDSDGSFFLYSRLTVDKSRWQEGNVFSCSVMHEALHNHYTQKSLSLSLGK heavy 2: EVQLVESGGGLVQPGGSLRLSCAASGFTFSSYAMNWVRQAPGKGLEWVSIISGTIGKTYYADSVKGRFTISRDNSKNTLYLQMNSLRGEDTAVYYCAKDTERDITGSPFDYWGQGTLVTVSSASTKGPSVFPLAPCSRSTSESTAALGCLVKDYFPEPVTVSWNSGALTSGVHTFPAVLQSSGLYSLSSVVTVPSSSLGTKTYTCNVDHKPSNTKVDKRVESKYGPPCPPCPAPGGGGPSVFLFPPKPKDTLMISRTPEVTCVVVDVSQEDPEVQFNWYVDGVEVHNAKTKPREEQFNSTYRVVSVLTVLHQDWLNGKEYKCKVSNKGLPSSIEKTISKAKGQPREPQVYTLPPSQEEMTKNQVSLTCLVKGFYPSDIAVEWESNGQPENNYKTTPPVLDSDGSFFLYSRLTVDKSRWQEGNVFSCSVMHEALHNRFTQKSLSLSPGK light: not shown | % max blockade relative to no mAb, IL-10, assay #2 donor 2 [9]: 90.9%; % max blockade relative to no mAb, TNFa, assay #2 donor 1 [10]: 61.9%; % max blockade relative to no mAb, TNFa, assay #2 donor 2 [10]: 52.3%
5 | 10% | 77% | 1.35e-10 M | 11% | 81% | 4% | 96% | 0.87 nM | 2440 MFI | 0.98 nM | 20500 MFI | 4.3 nM | 23200 MFI | 91% | 1.89e-10 M | 1.13 nM | 71 nM |  |  |  | REGN17544 (antibody, V domains shown, bivalent mAb with two Fab arms identical to the 21520 arm; also called Parental CD40 (21520)) VH: EVQLVESGGGLVQPGGSLRLSCAASGFTFGSYGMAWVRQAPGKGLEWVSAISGSGDYTNYADSVKRRFTISRDNSKNTLYLQMSSLRAEDTAVYYCAKEKTGTTGYLYSGMDVWGQGTTVTVSS VL: not shown | 
